Measured values reported in patent US20120225060A1 (APEXIGEN, published 2012).
Residue numbers refer to the chain shown, from its start. Where two headings read alike, the source gives them in different places. Blank lines part the entries; values can stand above or below the binder they belong to.

Tests used:
[1] = biological target: T1, IL-6R on human myeloma U266B1 cells (human, UniProt P08887 20-468); test: FACS binding to IL-6R on U266B1 cells
T1 construct: whole, on cells; Also used as target of the cell-based functional assays (TF-1 proliferation); also called IL-6R on U266B1 cells expressing IL-6R; cell-surface IL-6R
T1 sequence (looked up): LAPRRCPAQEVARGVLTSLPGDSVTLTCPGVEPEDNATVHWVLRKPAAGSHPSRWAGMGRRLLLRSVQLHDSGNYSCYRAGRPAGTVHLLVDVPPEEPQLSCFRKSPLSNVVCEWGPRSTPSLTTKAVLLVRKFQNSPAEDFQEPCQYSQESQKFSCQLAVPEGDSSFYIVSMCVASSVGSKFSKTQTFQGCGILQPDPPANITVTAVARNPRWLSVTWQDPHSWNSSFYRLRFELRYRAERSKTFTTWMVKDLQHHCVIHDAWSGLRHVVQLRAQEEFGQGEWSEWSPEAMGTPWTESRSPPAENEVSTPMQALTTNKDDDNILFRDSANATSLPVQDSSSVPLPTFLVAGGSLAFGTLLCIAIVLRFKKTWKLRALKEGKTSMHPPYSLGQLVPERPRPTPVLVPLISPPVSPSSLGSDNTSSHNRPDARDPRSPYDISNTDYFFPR

[2] = biological target: T1, IL-6R on human myeloma U266B1 cells; test: cell-based or functional assay
[3] = biological target: T2, recombinant human IL-6R-extracellular domain (ECD) (human, UniProt P08887 20-365); test: receptor-ligand ELISA, blocking of IL-6 binding to IL-6R
T2 construct: extracellular domain; also called IL-6R-ECD
T2 sequence (looked up): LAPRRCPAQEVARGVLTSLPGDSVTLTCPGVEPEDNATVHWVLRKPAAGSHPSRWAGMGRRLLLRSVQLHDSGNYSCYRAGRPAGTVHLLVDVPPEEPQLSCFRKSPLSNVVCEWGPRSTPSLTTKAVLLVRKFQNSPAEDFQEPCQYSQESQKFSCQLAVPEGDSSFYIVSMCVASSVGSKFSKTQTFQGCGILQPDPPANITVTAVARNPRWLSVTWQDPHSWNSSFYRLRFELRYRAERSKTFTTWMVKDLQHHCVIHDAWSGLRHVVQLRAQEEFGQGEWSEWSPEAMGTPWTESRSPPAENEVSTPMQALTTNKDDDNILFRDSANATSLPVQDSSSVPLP

[4] = biological target: T2, recombinant human IL-6R-extracellular …; test: direct ELISA on IL-6R
[5] = biological target: T2, recombinant human IL-6R-extracellular …; test: SPR
[6] = biological target: T2, recombinant human IL-6R-extracellular …; test: receptor-ligand ELISA, reference Tocilizumab
[7] = biological target: T2, recombinant human IL-6R-extracellular …; test: receptor-ligand ELISA: blocking of IL-6 binding to IL-6R
[8] = biological target: T2, recombinant human IL-6R-extracellular …; test: receptor-ligand ELISA, blocking of IL-6 binding to IL-6R; remark: listed apart in the source
[9] = biological target: T1, IL-6R on human myeloma U266B1 cells; test: cell-based or functional assay; remark: listed apart in the source
[10] = biological target: T1, IL-6R on human myeloma U266B1 cells; test: FACS binding to IL-6R on U266B1 cells; remark: listed apart in the source
[11] = biological target: T2, recombinant human IL-6R-extracellular …; test: direct ELISA on IL-6R; remark: listed apart in the source
IL-6R on TF-1 cells = IL-6R on TF-1 cells (Homo sapiens); test: cell-based or functional assay
[12] = biological target: T1, IL-6R on human myeloma U266B1 cells; test: cell-based or functional assay; remark: listed apart in the source
[13] = biological target: T1, IL-6R on human myeloma U266B1 cells; test: FACS on U266B1 cells

B1: clone 5 rabbit anti-IL-6R antibody (antibody, V domains shown)
VH: QSLEESGGRLVTPGTPLTLTCTVSGIDLSRYWMSWVRQAPGKGLEWIGMISGGNTWYASWAKGRFTISKTSTTVDLKITSPTTEDTATYFCARGIDTGIATTFNLWGPGTLVTVSS
VL: AQVLTQTPSSVSAAVGGTVTISCQSSQSVYNNNRLSWFQQKPGQPPKLLIYYASTLASGVPSRFKGSGSGTQFTLTISDLECDDAATYYCQGYYSGVINVFGGGTEVVVK
EC50 [1]: 0.0261 µg/mL
TF-1 proliferation IC50 [2]: 0.03 µg/mL
IC50 [3]: 0.38 µg/mL
EC50 [4]: 0.04 µg/mL
Kd [5]: 0.523 nM
koff [5]: 0.000279 s⁻¹
kon [5]: 533000 M⁻¹ s⁻¹

B2: clone 23 rabbit anti-IL-6R antibody (antibody, V domains shown)
VH: B1 VH
VL: B1 VL with A13T, S28N, A53T, A57P
EC50 [1]: 0.0263 µg/mL
TF-1 proliferation IC50 [2]: 0.07 µg/mL
IC50 [3]: 0.38 µg/mL
EC50 [4]: 0.07 µg/mL

B4: humanized clone #36 anti-IL-6R antibody (antibody, human IgG1, kappa, V domains shown)
VH: EVQLVESGGGLVQPGGSLRLSCAVSGFSLSSYYMSWVRQAPGKGLEWIGITTTSTNTFYASWAKGRFTISKDSSKNTVYLQMNSPRAEDTAVYFCARYGGNSAYYAFSLWGQGTLVTVSS
VL: DIQMTQSPSSLSASVGDRVTISCQSSQSVYNNNYLAWFQQKPGKPPKLLIYGASNLASGVPSRFSGSGSGTQFTLTISSLQPEDVATYYCQGYYNGVIFVFGGGTKVEIKR
notes: Humanized VH cloned into human IgG1 CH vector, humanized VK into human CK vector; also called Humanized 36; humanized 36
fold potency against Tocilizumab in ligand-receptor binding assays [6]: 6 fold
IC50 (read off the curve) [7]: ~0.2 µg/mL
IC50 [8]: 0.39 µg/mL
TF-1 proliferation IC50 [9]: 0.181 µg/mL
EC50 [10]: 0.145 µg/mL
EC50 [11]: 0.0216 µg/mL
Kd [5]: 0.526 nM
koff [5]: 0.00031 s⁻¹
kon [5]: 589000 M⁻¹ s⁻¹

B6: clone 40 rabbit anti-IL-6R antibody (antibody, V domains shown)
VH: QSLEESGGRLVSPGGSLTLTCTVSGVDLNTYAMGWVRQAPGKGLECIGVILGSGTTYYANWAKGRFTISKTSSTTVDLKMTNLTAADTATYFCAGDRYGSLEEVITPYFDLWGPGILVTVSS
VL: DVVMTQTPASVEAAVGGTVTIKCQASQNIYNNLAWYQQKPAQPPKLLIYSASTLESGVPSRFKGSGSGTGYTLTISDLECADAATYYCQSAYYTSYIDHNVFGGGTEVVVE
EC50 [1]: 0.0573 µg/mL
TF-1 proliferation IC50 [2]: 0.02 µg/mL
IC50 [3]: 1.36 µg/mL
EC50 [4]: 0.02 µg/mL

B9: clone 51 rabbit anti-IL-6R antibody (antibody, V domains shown)
VH: QSVEESGGRLVTPGTPLTLTCTASGFDISSYSLQWVRQSPGKGLEYIGFIRPDGSAHYATWAKGRFTISKTSSTTVDLKMTSLTTEDTATYFCARDDISSDYFPNLWGPGTLVTVSS
VL: QVLTQTPSPVSAAVGGTVTISCQASESVYNKNNLAWYQQKPGQPPKLLIYDASDLASGVSSRFKGSGSGTQFTLTISDLECADAATYYCAGGGSGNVYDFGGGTEVVVK
IC50 (read off the curve) [7]: ~0.3 µg/mL
EC50 [1]: 0.0687 µg/mL
IC50 [8]: 0.288 µg/mL
EC50 (read off the curve) [13]: ~0.2 µg/mL
TF-1 proliferation IC50 [9]: 0.154 µg/mL
EC50 [10]: 0.164 µg/mL
TF-1 proliferation IC50 [2]: 0.02 µg/mL
IC50 [3]: 0.8 µg/mL
EC50 [4]: 0.03 µg/mL
EC50 [11]: ~0.03 µg/mL
Kd [5]: 1.17 nM
koff [5]: 0.000463 s⁻¹
kon [5]: 393000 M⁻¹ s⁻¹

B10: clone 42 rabbit anti-IL-6R antibody (antibody, V domains shown)
VH: QSVEESGGRLVTPGTPLTLTCTVSGFSLSNYWMSWVRQAPGKGLEWIAFIGGGNTFYASWAKGRFTISKTSSTTVDLSMPSPTTEDTATYFCARGYGAPGYDLWGQGTLVTVSL
VL: AIVMTQTPSSKSVPVGDTVTINCQASESVYTNNRLSWYQQKPGQPPKLLIYYASTLASGVPSRFKGSGSGTQFTLTISDVVCDNAATYYCVGYKSSDGDGTAFGGGTEVVVK
EC50 [1]: 0.0961 µg/mL
TF-1 proliferation IC50 [2]: 0.03 µg/mL
IC50 [3]: 0.34 µg/mL
EC50 [4]: 0.04 µg/mL

More lines, now with the values ahead:

EC50 [1]: 0.0331 µg/mL
TF-1 proliferation IC50 [2]: 0.09 µg/mL
IC50 [3]: 0.39 µg/mL
EC50 [4]: 0.05 µg/mL
B3: clone 37 rabbit anti-IL-6R antibody (antibody, V domains shown)
VH: B1 VH with K69G, T79I, E84A
VL: B1 VL with N31S, A53T

IC50 [8]: 0.26 µg/mL
TF-1 proliferation IC50 [9]: 1.06 µg/mL
EC50 [10]: 0.356 µg/mL
EC50 [11]: 0.0169 µg/mL
Kd [5]: 1.29 nM
koff [5]: 0.0004 s⁻¹
kon [5]: 311000 M⁻¹ s⁻¹
B5: humanized clone #51 anti-IL-6R antibody (antibody, human IgG1, kappa, V domains shown)
VH: EVQLVESGGGLVQPGGSLRLSCAASGFDISSYSLQWVRQSPGKGLEYIGFIRPDGSAHYATWAKGRFTISKDSSKNTVYLQMNSLRAEDTAVYFCARDDISSDYFPNLWGPGTLVTVSS
VL: DIQMTQSPSTLSASVGDRVTISCQASESVYNKNNLAWYQQKPGKPPKLLIYDASDLASGVPSRFSGSGSGTQFTLTISSLQPDDFATYYCAGGGSGNVYDFGGGTKVEIKR
notes: Humanized VH cloned into human IgG1 CH vector, humanized VK into human CK vector; also called Humanized 51; humanized 51

EC50 [1]: 0.0326 µg/mL
TF-1 proliferation IC50 [2]: 0.11 µg/mL
IC50 [3]: 0.47 µg/mL
EC50 [4]: 0.04 µg/mL
B7: clone 21 rabbit anti-IL-6R antibody (antibody, V domains shown)
VH: QSVEESGGRLVTPGTPLTLTCTVSGIDLSNYYMSWVRQAPGKGLEWIGISSTTSNTFYASWAKGRFTISKTSATVDLKITSPTTEDTATYFCARYGGNSAYYAFSLWGQGTLVTVSS
VL: AVVLTQTPSPVSAAVGGTVTINCQSSQSVYNNNYLAWYQQKPGQPPKLLIYGASNLASGVPSRFKGSGSGTQFTLTISEVQCDDAATYYCQGYYNGVIFVFGGGTEVVVK

IC50 (read off the curve), IL-6 mediated TF-1 proliferation (IL-6R on TF-1 cells): ~0.1 µg/mL
IC50 (read off the curve) [7]: ~0.2 µg/mL
EC50 [1]: 0.0203 µg/mL
IC50 [8]: 0.235 µg/mL
inhibition of STAT3 phosphorylation, fold as compared to tocilizumab (hPM-1) [12]: > 10 fold
TF-1 proliferation IC50 [9]: 0.163 µg/mL
EC50 [10]: 0.0776 µg/mL
TF-1 proliferation IC50 [2]: 0.04 µg/mL
IC50 [3]: 0.23 µg/mL
EC50 [4]: 0.02 µg/mL
EC50 [11]: 0.0595 µg/mL
Kd [5]: 0.635 nM
koff [5]: 0.000342 s⁻¹
kon [5]: 538000 M⁻¹ s⁻¹
B8: clone 36 rabbit anti-IL-6R antibody (antibody, V domains shown)
VH: B7 VH with I26F, D27S, N30S, S50T, S51T, T53S, S54T, T84I
VL: QVLTQTASSVSAAVGGTVTISCQSSQSVYNNNYLAWFQQKPGQPPKLLIYGASNLASGVPSRFKGSGSGTQFTLTISDLECDNAATYYCQGYYNGVIFVFGGGTEVVVK
